Data as given in US9260754B2, “Connexin mutation detection for lymphatic variation and disease” (University of Pittsburgh—Of the Commonwealth System of …, priority 2010, dated 2016).
“Also recorded” adds a separate entry of the source.

B1: WT-hCx47: human wild type Cx47 construct in bicistronic pIRES2-EGFP vector, expressed in HeLa cells or LECs (protein, UniProt Q5T442 1-439, looked up)
Gap junction gamma-2 protein: MTNMSWSFLTRLLEEIHNHSTFVGKVWLTVLVVFRIVLTAVGGEAIYSDEQAKFTCNTRQPGCDNVCYDAFAPLSHVRFWVFQIVVISTPSVMYLGYAVHRLARASEQERRRALRRRPGPRRAPRAHLPPPHAGWPEPADLGEEEPMLGLGEEEEEEETGAAEGAGEEAEEAGAEEACTKAVGADGKAAGTPGPTGQHDGRRRIQREGLMRVYVAQLVARAAFEVAFLVGQYLLYGFEVRPFFPCSRQPCPHVVDCFVSRPTEKTVFLLVMYVVSCLCLLLNLCEMAHLGLGSAQDAVRGRRGPPASAPAPAPRPPPCAFPAAAAGLACPPDYSLVVRAAERARAHDQNLANLALQALRDGAAAGDRDRDSSPCVGLPAASRGPPRAGAPASRTGSATSAGTVGEQGRPGTHERPGAKPRAGSEKGSASSRDGKTTVWI
B2: G146S: Cx47 missense mutant G146S (436G>A), intracellular loop, construct expressed in HeLa cells or LECs (protein, listed as Homo sapiens)
chain: MSWSFLTRLLEEIHNHSTFVGKVWLTVLVVFRIVLTAVGGEAIYSDEQAKFTCNTRQPGCDNVCYDAFAPLSHVRFWVFQIVVISTPSVMYLGYAVHRLARASEQERRRALRRRPGPRRAPRAHLPPPHAGWPEPADLGEEEPMLSLGEEEEEEETGAAEGAGEEAEEAGAEEACTKAVGADGKAAGTPGPTGQHDGRRRIQREGLMRVYVAQLVARAAFEVAFLVGQYLLYGFEVRPFFPCSRQPCPHVVDCFVSRPTEKTVFLLVMYVVSCLCLLLNLCEMAHLGLGSAQDAVRGRRGPPASAPAPAPRPPPCAFPAAAAGLACPPDYSLVVRAAERARAHDQNLANLALQALRDGAAAGDRDRDSSPCVGLPAASRGPPRAGAPASRTGSATSAGTVGEQGRPGTHERPGAKPRAGSEKGSASSRDGKTTVWI

What was measured:
[1] = system: HeLa cells; assay: Cx47 gap junction plaque formation by immunofluorescent confocal microscopy in transfected HeLa cells; type: cell-based, human; conditions: near confluent transfected HeLa cells
Protocol: Human neonatal foreskin was collected anonymously as discarded tissue according to an IRB protocol. Samples were collected immediately after harvest in DMEM, then fixed in 2% paraformaldehyde for 2 hrs, then stored in 30% sucrose in 1×PBS overnight for cryosectioning, and sectioned in 6 μm slices at −30° C. Transfected (stable and transient) and untransfected HeLa cells were grown to near confluence in coverslip bottom dishes. All cells were rinsed with PBS and fixed with 2% paraformaldehyde. Subsequently, tissue and HeLa cells were processed similarly: following permeabilization with 0.1% Triton X, cells were blocked with 2% BSA. A human Cx47 antibody (ab) was obtained from the S. Scherer laboratory: polyclonal rabbit against amino acids 344-399 in the cytoplasmic C-terminal tail; we used human CNS tissue and positive oligodendrocyte staining as a positive control and primary antibody delete and rabbit IgG as negative controls (data not shown). Cx47 ab was diluted in 0.5% BSA in a 1:200 ratio, applied to cells and incubated at RT for one hour. Mouse monoclonal Proxl (Chemicon) was used as a lymphatic marker for the foreskin samples. Cells were incubated with the secondary abs (Donkey Anti-Rabbit Cy5 and Donkey Anti-Mouse Cy3; Invitrogen) for one hour at RT and washed; Draq5 was used as a nuclear marker. HeLa images were acquired with an inverted Olympus Fluoview 1000 Confocal Microscope 100× oil, 1.4 NA objective. Foreskin images were acquired on a Zeiss Meta LSM 510 inverted confocal microscope with 40× oil, 1.3 N.A. objective. LECs (primary human microvascular adult dermal lymphatics; Lonza) were grown in fibronectin coated coverslip bottom MatTeks dishes in EGM™-2 MV—Microvascular Endothelial Cell Medium-2 (Lonza Inc.) to approximately 80% confluence, and prepared similarly but a commercially available (AbCam) Cx47 ab, polyclonal rabbit against amino acids 41-70 in the human sequence was used along with Drag 5 nuclear marker and phalloidin to mark f-actin.
Immunofluorescence microscopy determines the presence or absence of Cx47 gap junction plaques when the constructs are transiently expressed in HeLa cells. Cx plaques reflect a physiologic accumulation of Cx channels in the cell membrane between cells (tens to thousands of channels); thus plaques are indicative of normal trafficking and gap junction formation at the cell membrane.
Immunofluorescence microscopy determines the presence or absence of Cx47 gap junction plaques when the constructs are transiently expressed in HeLa cells. A human Cx47 antibody was obtained: polyclonal rabbit against amino acids 344-399 in the cytoplasmic C-terminal tail (Orthmann-Murphy J L, et al. Mol Cell Neurosci 2007; 34:629-41); we used human CNS tissue and positive oligodendrocyte staining as a positive control and primary antibody delete as a negative control (data not shown). Cultured HeLa cells were routinely fixed and stained with the primary antibodies against Cx47, along with a nuclear marker, and transfected cells were identified by their EGFP signal. Plaques were imaged using an Olympus Fluoview 1000 confocal microscope, 100× oil objective.

[2] = system: HeLa cells; assay: Wound assay (proliferation/migration) in confluent transfected HeLa cells; type: cell-based, human; conditions: for wound assay: fraction of original wound in HeLa cell monolayer after 24 hrs, mean ± SEM
Protocol: The wound assay, a measure of proliferation/migration, was performed using differential interference contrast time lapse of over 24 hrs using confluent transfected HeLa cells. Analysis was done using TScratch (Geback T, et al. TScratch: a novel and simple software tool for automated analysis of monolayer wound healing assays. Biotechniques 2009; 46:265-74), mean±SEM of at least 10 positions along wound; the scrape width was normalized to the first image for each position. In all cases a two tailed student's T test was applied with p<0.05 considered significant.

[3] = system: HeLa cells; assay: Calcein AM scrape loading and dye transfer in stably transfected HeLa cells; type: cell-based, human; conditions: for dye transfer: ratio, rate normalized to untransfected HeLa cells, Calcein AM scrape loading, 10 min, stably transfected HeLa, mean ± SEM
Protocol: A confluent monolayer of HeLa cells (untransfected and stably transfected, as described above) was grown in DMEM with 10% FBS in coverslip bottom plates (MatTek) and placed in a temperature controlled microincubator (Zeiss). A 10×, 0.4 NA objective was used to collect DIC and GFP images every 5 seconds for 10 minutes without changing media. A pipette loaded with 1 μl Calcein AM (Invitrogen), a gap junction permissive dye with molecular weight 662, −4 charge when intracellular and fluorescent, was used to create a scrape across the monolayer. At least 5 replicate dishes were analyzed on the same day, and WT hCx47 expressing HeLas were grown and assayed as a concurrent control; assays were performed on at least 2 different batches of HeLa cells on different days. Quantitation of the rate of spread was calculated using MetaMorph, by obtaining integrated intensity at the 10th time point, within the first minute of imaging, and then at the endpoint at 10 min, and subtracting the initial intensity from that at the endpoint. Results are reported as mean and SEM, and tested for significance (p<0.05) using an unpaired Student's t-test.
In these mutants, Cx47 appears to concentrate in the ER. Unlike electrophysiologic measurements, dye transfer assays are used to assess GJIC of relatively large molecules. We also found significant differences in GJIC in HeLa cells overexpressing Cx47 lymphedema associated mutations by assessing rates of dye transfer in a conventional scrape assay using stably transfected HeLa cells normalized to rates in untransfected HeLa cells (FIG. 7D; Table 3). […] It is not surprising that the mutants show some differences in GJIC between the electrophysiologic and dye transfer assays given that they are designed to measure different kinds of transport and that Cx channel permeability is now believed to be governed by factors including molecular shape, charge and size, in addition to channel conformation and composition.

[4] = system: Adult human dermal lymphatic microvascular endothelial cells; assay: Lucifer yellow microinjection dye spread in lymphatic endothelial cells expressing mutant constructs; type: cell-based; conditions: Dye spread to tiers of LECs after 2 min; Lucifer yellow microinjection; mean ± SEM
Protocol: Adult human dermal lymphatic microvascular endothelial cells were cultured in EGM™-2 MV (both from Lonza). Cells were electroporated with 2 μg cDNA of the EGFP tagged mutant constructs and then selected with G418 as described above. Cells were microinjected using a combination (1:4 ratio) of 70 kd Texas Red dextran (Invitrogen) to mark injected cell for reference and Lucifer yellow, a known gap junction permeable dye (m.w. 443, −2 charge), to assess change in extent of spread (Abbaci M, et al. Advantages and limitations of commonly used methods to assay the molecular permeability of gap junctional intercellular communication. Biotechniques 2008; 45:33-52, 6-62). All cells were injected using constant conditions and cells were scored for dye spread in tiers from reference cell, using constant exposure time and thresholding, and were imaged using a Nikon TE2000 with temperature controlled motorized stage and Qlmaging Retiga CCD camera. Images were obtained using differential interference contrast (DIC) and standard filters for EGFP (identify expression of mutation), DAPI (for Lucifer yellow) and dsRed (for dextran) preinjection, immediately post-injection and 2 min after injection. Results were calculated as mean SEM and statistical significance was determined in comparison to WT-hCx47-EGFP expressing cells using a Mann-Whitney Test.

Row | Molecule | Cx47 plaque formation (in words) [1] | Cx47 plaque formation (in words) ([1]; listed as WT-hCx47-EGFP) | wound assay [2] | dye transfer [3] | LEC spread [4] [tiers] | wound closure compared to WT-hCx47-EGFP transfected cells (in words) ([2]; HeLa cells, cell scratch assay) | Calcein AM dye transfer compared to WT-hCx47 transfected HeLa cells (in words) ([3]; stably transfected HeLa cells, scrape assay)
1 | B1 | Presence | Cx47 intercellular plaques | 0.72 | 1.80 | 1.4 |  | 
2 | B2 | Cx47 intercellular plaques |  | 0.62 | 1.05 | 2.0 | faster wound closure; also recorded: more rapid closure | less
